The text below walks through data of patent US20210030857A1 (NGM BIOPHARMACEUTICALS, published 2021).

Assay in all cases: FACS on transfected Expi293 cells
Assay [1] has as its target T1, human beta klotho expressed on cells (human, UniProt Q86Z14 1-1044).
T1 construct: also called HuKLB overexpressing cells; Human KLB
T1 sequence: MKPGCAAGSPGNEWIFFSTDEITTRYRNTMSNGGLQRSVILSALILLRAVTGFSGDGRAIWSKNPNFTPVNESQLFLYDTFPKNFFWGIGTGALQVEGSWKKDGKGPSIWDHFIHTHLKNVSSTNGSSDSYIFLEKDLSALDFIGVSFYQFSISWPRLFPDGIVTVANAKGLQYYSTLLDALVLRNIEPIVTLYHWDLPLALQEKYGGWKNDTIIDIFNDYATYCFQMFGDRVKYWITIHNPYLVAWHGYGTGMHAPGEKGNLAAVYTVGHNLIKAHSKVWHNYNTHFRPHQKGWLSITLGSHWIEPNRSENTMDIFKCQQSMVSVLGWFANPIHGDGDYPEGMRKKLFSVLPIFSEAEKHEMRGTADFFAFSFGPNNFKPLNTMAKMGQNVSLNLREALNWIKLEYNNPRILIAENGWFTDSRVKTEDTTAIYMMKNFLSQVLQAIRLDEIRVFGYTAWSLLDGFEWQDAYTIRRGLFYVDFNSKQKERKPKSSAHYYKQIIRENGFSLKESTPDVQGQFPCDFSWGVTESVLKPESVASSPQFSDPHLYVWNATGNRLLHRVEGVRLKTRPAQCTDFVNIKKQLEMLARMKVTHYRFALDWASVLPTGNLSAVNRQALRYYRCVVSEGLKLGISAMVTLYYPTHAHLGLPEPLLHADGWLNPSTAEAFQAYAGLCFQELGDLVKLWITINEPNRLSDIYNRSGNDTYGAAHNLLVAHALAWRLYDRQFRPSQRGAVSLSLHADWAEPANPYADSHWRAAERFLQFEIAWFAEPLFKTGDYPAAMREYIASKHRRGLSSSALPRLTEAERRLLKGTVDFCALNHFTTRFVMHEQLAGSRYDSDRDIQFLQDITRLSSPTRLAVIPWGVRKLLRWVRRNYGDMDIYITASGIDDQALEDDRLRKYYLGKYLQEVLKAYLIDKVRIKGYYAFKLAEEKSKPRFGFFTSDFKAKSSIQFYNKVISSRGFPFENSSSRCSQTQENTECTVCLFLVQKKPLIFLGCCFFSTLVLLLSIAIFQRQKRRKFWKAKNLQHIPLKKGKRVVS
On the procedure:
(§1) Studies were performed in order to localize the binding site on human KLB of anti-beta klotho antibodies in the 5H23 epitope bin, including 5H23 as described in Example 3, with sequences shown in Tables 1-10 and FIGS. 1-3, and human anti-beta klotho antibodies in the 5H23 epitope bin, such as humanized 5H23 antibodies (e.g., VH SEQ ID NO: 271 and VL SEQ ID NO: 276). For example, FACS-based binding assays for domain mapping were performed on Expi293 cells (Life Technologies, A14635) that were transiently transfected with plasmids encoding variants of KLB: human, mouse, cynomolgus, a chimeric version in which the KL1 domain sequence of mouse KLB (M1-F506) replaces the KL1 domain of human KLB (M1-F508) to create mouse-human KLB (SEQ ID NO: 376), and a second chimera in which the human KL1 sequence (M1-F508) replaces the KL1 domain of mouse KLB (M1-F506) to create human-mouse KLB (SEQ ID NO: 374). Additionally, the expression vector pYD7 harboring no KLB sequence was transfected as a negative control.
(§2) In some studies, binding of a purified sample of a humanized 5H23 antibody (e.g., VH SEQ ID NO: 271 and VL SEQ ID NO: 276) to KLB variants was determined by FACS analysis. […] After washing with PBS/1% BSA/0.1% azide, transfected cells were then co-incubated with labeled anti-human Fc (Jackson lmmunoresearch) for 30 minutes at 4° C. After washing with PBS/1% BSA/0.1% azide, cells were acquired on flow cytometer (FACS Calibur) and analyzed by cytometric software (FlowJo). To display the resulting data, graphs plotting the number of cells as a function of fluorescence intensity were generated, and the median fluorescence intensity (MFI) was determined for each sample as shown in Table 30.

The target of assay [2] is T2, cynomolgus beta klotho expressed on cells (cynomolgus monkey (Macaca fascicularis), UniProt Q86Z14 1-1044 (human entry)).
T2 construct: also called Cynomolgus KLB
T2 chain: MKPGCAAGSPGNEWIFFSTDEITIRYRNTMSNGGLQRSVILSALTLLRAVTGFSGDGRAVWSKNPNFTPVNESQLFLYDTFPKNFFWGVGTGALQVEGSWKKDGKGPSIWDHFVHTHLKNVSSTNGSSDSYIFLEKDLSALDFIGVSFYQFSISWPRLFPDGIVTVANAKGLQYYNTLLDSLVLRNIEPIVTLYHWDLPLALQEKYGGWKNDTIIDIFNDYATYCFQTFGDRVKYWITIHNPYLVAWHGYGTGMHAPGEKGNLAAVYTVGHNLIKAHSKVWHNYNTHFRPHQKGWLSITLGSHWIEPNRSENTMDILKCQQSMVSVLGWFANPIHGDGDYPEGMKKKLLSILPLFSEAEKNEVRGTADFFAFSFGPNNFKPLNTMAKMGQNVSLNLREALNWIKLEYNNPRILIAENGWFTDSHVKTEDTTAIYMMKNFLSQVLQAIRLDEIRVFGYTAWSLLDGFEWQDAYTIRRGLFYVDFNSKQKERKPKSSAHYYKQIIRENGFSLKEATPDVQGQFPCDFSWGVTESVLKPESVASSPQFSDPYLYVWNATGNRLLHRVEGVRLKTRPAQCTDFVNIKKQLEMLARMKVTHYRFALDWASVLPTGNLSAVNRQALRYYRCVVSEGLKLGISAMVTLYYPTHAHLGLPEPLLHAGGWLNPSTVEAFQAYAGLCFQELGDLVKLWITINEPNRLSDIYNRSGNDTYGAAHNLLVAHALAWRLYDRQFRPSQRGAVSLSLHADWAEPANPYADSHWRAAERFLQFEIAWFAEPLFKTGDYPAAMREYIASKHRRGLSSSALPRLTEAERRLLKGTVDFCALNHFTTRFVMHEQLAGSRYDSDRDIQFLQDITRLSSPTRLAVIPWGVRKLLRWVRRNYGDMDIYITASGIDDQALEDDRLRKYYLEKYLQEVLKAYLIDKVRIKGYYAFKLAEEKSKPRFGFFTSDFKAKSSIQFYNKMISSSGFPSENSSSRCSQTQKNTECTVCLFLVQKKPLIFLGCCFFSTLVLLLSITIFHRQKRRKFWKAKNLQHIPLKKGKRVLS
How it is done:
as §1, §2

Assay [3] deals with T3, human-mouse KLB chimeric protein (human KLB (M1-F508)-mouse KLB (P507-S1043)) on cells (human/mouse chimera, UniProt Q99N32 1-1043 (mouse entry)).
T3 construct: also called Human-Mouse chimeric KLB; chHuMo
How it is done: as §1, §2

B1: negative control antibody, anti-keyhole limpet hemocyanin (KLH) antibody (antibody, human IgG1, kappa, V domains shown)
VH: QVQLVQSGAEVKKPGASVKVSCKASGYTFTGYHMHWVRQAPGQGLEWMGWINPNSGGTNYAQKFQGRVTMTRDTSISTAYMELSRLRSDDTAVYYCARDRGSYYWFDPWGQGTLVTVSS
VL: DIQMTQSPSSLSASVGDRVTITCRASQGIRNDLGWYQQKPGKAPKRLIYAASSLQSGVPSRFSGSGSGTEFTLTISSLQPEDFATYYCLQHNSYPLTFGGGTKVEIKR
notes: also called Neg; Control; anti-KLH antibody
For the molecule B1, the binding result in assay [1] and in assay [2] was “no binding (tested: 1 µg/ml)” each time.

B2: humanized 5H23 antibody (VH SEQ ID NO: 271 and VL SEQ ID NO: 276) (antibody, V domains shown)
VH: QVQLQQSGAEVKKPGASVKVSCKASGYTFTSYDINWVRQAPGQGLEWIGWIYPGDGSTKYNEKFKGKATITRDTSASTAYMELSSLRSEDTAVYFCARSDYYGSRSFAYWGQGTLVTVSS
VL: DIVMTQSPDSLAVSLGERATINCRASKSVSTSGYVYMHWYQQKPGQPPKLLIYLASYLESGVPDRFSGSGSGTDFTLTISSVQAEDVAVYYCQHSRDLTFPFGGGTKLEIK
notes: also called h5H23; h5H23 (Prep 1)
As for B2, in assay [3], the binding result was “no binding (tested: 1 µg/ml)”.
